This note sets out measurements from PMC7679444 (2020).

To fix the notation:
B1: GST-HA-ATG16L1(231–607) [human] / TMEM59 peptide (residues 268–280), wild type [modified: long spacer (Tds) at the N-terminal end, used for immobilisation; long spacer (Tds) at the N-terminal end, used for immobilisation] [not stated] (parent complex)
chain 1: PLPVEQDDDIEVIVDETSDHTEETSPVRAISRAATKRLSQPAGGLLDSITNIFGRRSVSSFPVPQDNVDTHPGSGKEVRVPATALCVFDAHDGEVNAVQFSPGSRLLATGGMDRRVKLWEVFGEKCEFKGSLSGSNAGITSIEFDSAGSYLLAASNDFASRIWTVDDYRLRHTLTGHSGKVLSAKFLLDNARIVSGSHDRTLKLWDLRSKVCIKTVFAGSSCNDIVCTEQCVMSGHFDKKIRFWDIRSESIVREMELLGKITALDLNPERTELLSCSRDDLLKVIDLRTNAIKQTFSAPGFKCGSDWTRVVFSPDGSYVAAGSAEGSLYIWSVLTGKVEKVLSKQHSSSINAVAWSPSGSHVVSVDKGCKAVLWAQY
chain 2: YVPSEKLSIYGDL

In the assay the parent is B1. The assay is described as follows: peptide microarray; 800, 400 nM (n = 6); parent: 100; read off a plot.
As to chain 2 Y1A, chain 2 E5A, chain 2 Y10A, chain 2 L13A, the percent of parent was roughly 1 % WT.
